*1 amine or outer side, *2 acyl side, *3 side chain or, on linkers, in order; H or OH if unused. Primed or numbered codes have the meaning given here. Side-chain parts run from the residue outwards. [ ]: non-standard residue; d: D form. The star is where a group is joined. TTDS = 4-[3-[2-[2-(3-aminopropoxy)ethoxy]ethoxy]propylamino]-4-oxo-butanoyl, O=C(CCC(=O)[*:2])NCCCOCCOCCOCCCN[*:1]; TTDS″ = 4-[3-[2-[2-(3-aminopropoxy)ethoxy]ethoxy]propylamino]-4-oxo-butanoyl; PEG12 = NCCOCCOCCOCCOCCOCCOCCOCCOCCOCCOCCOCCOCCC(=O)O; TtdDga = O=C(COCC(=O)[*:2])NCCCOCCOCCOCCCN[*:1]; γGlu = O=C(O)[C@H](CCC(=O)[*:2])N[*:1]; Pentadecanoyl = CCCCCCCCCCCCCCC(=O)*; Stearoyl = CCCCCCCCCCCCCCCCCC(=O)*; Palmitoyl = CCCCCCCCCCCCCCCC(=O)*; Myristoyl = CCCCCCCCCCCCCC(=O)*; αMeK = C[C@](N)(CCCCN)C(=O)O; Nle = CCCC[C@H](N)C(=O)O; PEG2′ = PEG2 spacer unit; Aib = CC(C)(N)C(=O)O
T1: RXFP1 receptor (UniProt Q9HBX9 1-757, limits assumed)
T1 sequence (looked up): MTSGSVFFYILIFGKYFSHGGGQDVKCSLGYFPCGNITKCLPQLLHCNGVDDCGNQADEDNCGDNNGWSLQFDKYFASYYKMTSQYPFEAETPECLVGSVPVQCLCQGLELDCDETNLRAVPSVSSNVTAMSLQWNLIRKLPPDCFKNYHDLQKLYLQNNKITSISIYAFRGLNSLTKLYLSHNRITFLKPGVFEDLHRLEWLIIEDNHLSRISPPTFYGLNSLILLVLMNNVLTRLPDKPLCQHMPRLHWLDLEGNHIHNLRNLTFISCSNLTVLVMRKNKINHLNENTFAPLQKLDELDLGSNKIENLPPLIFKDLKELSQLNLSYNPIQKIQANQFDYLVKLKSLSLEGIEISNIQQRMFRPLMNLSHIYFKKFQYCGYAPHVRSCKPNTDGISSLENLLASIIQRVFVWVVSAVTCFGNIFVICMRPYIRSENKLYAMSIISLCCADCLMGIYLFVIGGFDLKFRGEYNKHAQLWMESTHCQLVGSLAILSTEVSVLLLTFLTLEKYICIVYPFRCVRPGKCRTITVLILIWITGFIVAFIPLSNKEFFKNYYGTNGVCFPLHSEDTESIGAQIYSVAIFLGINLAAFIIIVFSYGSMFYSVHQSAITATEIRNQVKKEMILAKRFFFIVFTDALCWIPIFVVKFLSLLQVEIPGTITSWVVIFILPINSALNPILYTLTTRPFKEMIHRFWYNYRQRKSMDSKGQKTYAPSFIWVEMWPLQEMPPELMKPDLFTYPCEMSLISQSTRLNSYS

B1: peptide of SEQ ID NO: 187 (peptide)
peptide: Ac-LEGREKVRAK(Ac)I[Aib][Aib]EG[Nle]STFS[αMeK]RAK(Ac)[TTDS][TTDS][TTDS]K([γGlu-γGlu-γGlu-Palmitoyl])-NH2
SMILES: CCCCCCCCCCCCCCCC(=O)N[C@@H](CCC(=O)N[C@@H](CCC(=O)N[C@@H](CCC(=O)NCCCC[C@H](NC(=O)CCC(=O)NCCCOCCOCCOCCCNC(=O)CCC(=O)NCCCOCCOCCOCCCNC(=O)CCC(=O)NCCCOCCOCCOCCCNC(=O)[C@H](CCCCNC(C)=O)NC(=O)[C@H](C)NC(=O)[C@H](CCCNC(=N)N)NC(=O)[C@](C)(CCCCN)NC(=O)[C@H](CO)NC(=O)[C@H](Cc1ccccc1)NC(=O)[C@@H](NC(=O)[C@H](CO)NC(=O)[C@H](CCCC)NC(=O)CNC(=O)[C@H](CCC(=O)O)NC(=O)C(C)(C)NC(=O)C(C)(C)NC(=O)[C@@H](NC(=O)[C@H](CCCCNC(C)=O)NC(=O)[C@H](C)NC(=O)[C@H](CCCNC(=N)N)NC(=O)[C@@H](NC(=O)[C@H](CCCCN)NC(=O)[C@H](CCC(=O)O)NC(=O)[C@H](CCCNC(=N)N)NC(=O)CNC(=O)[C@H](CCC(=O)O)NC(=O)[C@H](CC(C)C)NC(C)=O)C(C)C)[C@@H](C)CC)[C@@H](C)O)C(N)=O)C(=O)O)C(=O)O)C(=O)O
B2: peptide of SEQ ID NO: 21 (peptide)
peptide: Ac-LEGREKVRAQI[Aib][Aib]EG[Nle]STWS[Aib]RKK(Ac)[PEG12]K(Stearoyl)-NH2
SMILES: CCCCCCCCCCCCCCCCCC(=O)NCCCC[C@H](NC(=O)CCOCCOCCOCCOCCOCCOCCOCCOCCOCCOCCOCCOCCNC(=O)[C@H](CCCCNC(C)=O)NC(=O)[C@H](CCCCN)NC(=O)[C@H](CCCNC(=N)N)NC(=O)C(C)(C)NC(=O)[C@H](CO)NC(=O)[C@H](Cc1c[nH]c2ccccc12)NC(=O)[C@@H](NC(=O)[C@H](CO)NC(=O)[C@H](CCCC)NC(=O)CNC(=O)[C@H](CCC(=O)O)NC(=O)C(C)(C)NC(=O)C(C)(C)NC(=O)[C@@H](NC(=O)[C@H](CCC(N)=O)NC(=O)[C@H](C)NC(=O)[C@H](CCCNC(=N)N)NC(=O)[C@@H](NC(=O)[C@H](CCCCN)NC(=O)[C@H](CCC(=O)O)NC(=O)[C@H](CCCNC(=N)N)NC(=O)CNC(=O)[C@H](CCC(=O)O)NC(=O)[C@H](CC(C)C)NC(C)=O)C(C)C)[C@@H](C)CC)[C@@H](C)O)C(N)=O
B3: peptide of SEQ ID NO: 20 (peptide)
peptide: Ac-LEGREKVRAK(Ac)I[Aib][Aib]EG[Nle]STWS[Aib]RKK(Ac)[TtdDga][TtdDga][TtdDga]K([γGlu-γGlu-γGlu-Stearoyl])-NH2
SMILES: CCCCCCCCCCCCCCCCCC(=O)N[C@@H](CCC(=O)N[C@@H](CCC(=O)N[C@@H](CCC(=O)NCCCC[C@H](NC(=O)COCC(=O)NCCCOCCOCCOCCCNC(=O)COCC(=O)NCCCOCCOCCOCCCNC(=O)COCC(=O)NCCCOCCOCCOCCCNC(=O)[C@H](CCCCNC(C)=O)NC(=O)[C@H](CCCCN)NC(=O)[C@H](CCCNC(=N)N)NC(=O)C(C)(C)NC(=O)[C@H](CO)NC(=O)[C@H](Cc1c[nH]c2ccccc12)NC(=O)[C@@H](NC(=O)[C@H](CO)NC(=O)[C@H](CCCC)NC(=O)CNC(=O)[C@H](CCC(=O)O)NC(=O)C(C)(C)NC(=O)C(C)(C)NC(=O)[C@@H](NC(=O)[C@H](CCCCNC(C)=O)NC(=O)[C@H](C)NC(=O)[C@H](CCCNC(=N)N)NC(=O)[C@@H](NC(=O)[C@H](CCCCN)NC(=O)[C@H](CCC(=O)O)NC(=O)[C@H](CCCNC(=N)N)NC(=O)CNC(=O)[C@H](CCC(=O)O)NC(=O)[C@H](CC(C)C)NC(C)=O)C(C)C)[C@@H](C)CC)[C@@H](C)O)C(N)=O)C(=O)O)C(=O)O)C(=O)O
B4: peptide of SEQ ID NO: 188 (peptide)
peptide: Ac-LEGREKVRAK(Ac)I[Aib][Aib]EG[Nle]STFS[αMeK]RAK(Ac)[TTDS][TTDS][TTDS]K([γGlu-γGlu-γGlu-Pentadecanoyl])-NH2
SMILES: CCCCCCCCCCCCCCC(=O)N[C@@H](CCC(=O)N[C@@H](CCC(=O)N[C@@H](CCC(=O)NCCCC[C@H](NC(=O)CCC(=O)NCCCOCCOCCOCCCNC(=O)CCC(=O)NCCCOCCOCCOCCCNC(=O)CCC(=O)NCCCOCCOCCOCCCNC(=O)[C@H](CCCCNC(C)=O)NC(=O)[C@H](C)NC(=O)[C@H](CCCNC(=N)N)NC(=O)[C@](C)(CCCCN)NC(=O)[C@H](CO)NC(=O)[C@H](Cc1ccccc1)NC(=O)[C@@H](NC(=O)[C@H](CO)NC(=O)[C@H](CCCC)NC(=O)CNC(=O)[C@H](CCC(=O)O)NC(=O)C(C)(C)NC(=O)C(C)(C)NC(=O)[C@@H](NC(=O)[C@H](CCCCNC(C)=O)NC(=O)[C@H](C)NC(=O)[C@H](CCCNC(=N)N)NC(=O)[C@@H](NC(=O)[C@H](CCCCN)NC(=O)[C@H](CCC(=O)O)NC(=O)[C@H](CCCNC(=N)N)NC(=O)CNC(=O)[C@H](CCC(=O)O)NC(=O)[C@H](CC(C)C)NC(C)=O)C(C)C)[C@@H](C)CC)[C@@H](C)O)C(N)=O)C(=O)O)C(=O)O)C(=O)O
B5: peptide of SEQ ID NO: 19 (peptide)
peptide: Ac-LEGREKVRAK(Ac)I[Aib][Aib]EG[Nle]STWS[Aib]RKK(Ac)[TtdDga][TtdDga]K([γGlu-γGlu-γGlu-Stearoyl])-NH2
SMILES: CCCCCCCCCCCCCCCCCC(=O)N[C@@H](CCC(=O)N[C@@H](CCC(=O)N[C@@H](CCC(=O)NCCCC[C@H](NC(=O)COCC(=O)NCCCOCCOCCOCCCNC(=O)COCC(=O)NCCCOCCOCCOCCCNC(=O)[C@H](CCCCNC(C)=O)NC(=O)[C@H](CCCCN)NC(=O)[C@H](CCCNC(=N)N)NC(=O)C(C)(C)NC(=O)[C@H](CO)NC(=O)[C@H](Cc1c[nH]c2ccccc12)NC(=O)[C@@H](NC(=O)[C@H](CO)NC(=O)[C@H](CCCC)NC(=O)CNC(=O)[C@H](CCC(=O)O)NC(=O)C(C)(C)NC(=O)C(C)(C)NC(=O)[C@@H](NC(=O)[C@H](CCCCNC(C)=O)NC(=O)[C@H](C)NC(=O)[C@H](CCCNC(=N)N)NC(=O)[C@@H](NC(=O)[C@H](CCCCN)NC(=O)[C@H](CCC(=O)O)NC(=O)[C@H](CCCNC(=N)N)NC(=O)CNC(=O)[C@H](CCC(=O)O)NC(=O)[C@H](CC(C)C)NC(C)=O)C(C)C)[C@@H](C)CC)[C@@H](C)O)C(N)=O)C(=O)O)C(=O)O)C(=O)O

The binders below were run against T1, RXFP1 receptor (assay: cell-based or functional assay).
Ac-LEGREKVRAK(Ac)I[Aib][Aib]EGQSTFS[αMeK]RAK(Ac)K([TTDS″-TTDS″-TTDS″-γGlu-γGlu-γGlu-Pentadecanoyl])-NH2 [peptide of SEQ ID NO: 189] was tested, and the “EC50 (nM), OVCAR 5 cells (cAMP)” value was 0.42 nM and the “EMax, OVCAR 5 cells (cAMP)” value was 100%.
With B1 the “EC50 (nM), OVCAR 5 cells (cAMP)” value was 0.33 nM and the “EMax, OVCAR 5 cells (cAMP)” value was 100%.
In the case of B2, the “EC50 (nM), OVCAR 5 cells (cAMP)” value is reported as 38.6 nM and the “EMax, OVCAR 5 cells (cAMP)” value is reported as 88%.
In the case of Ac-LEGREKVRAK(Ac)I[Aib][Aib]EGQSTFS[αMeK]RAK(Ac)[PEG2′][PEG2′][PEG2′][PEG2′][γGlu][γGlu]K([γGlu-γGlu-Pentadecanoyl])-NH2 [peptide of SEQ ID NO: 186], the “EC50 (nM), OVCAR 5 cells (cAMP)” value is reported as 0.18 nM and the “EMax, OVCAR 5 cells (cAMP)” value is reported as 100%.
Ac-LEGREKVRAK(Ac)I[Aib][Aib]EGQSTFS[αMeK]RAK(Ac)K([PEG2′-PEG2′-PEG2′-PEG2′-γGlu-γGlu-γGlu-γGlu-Palmitoyl])-NH2 [peptide of SEQ ID NO: 191] was tested, and the “EC50 (nM), OVCAR 5 cells (cAMP)” value was 0.17 nM and the “EMax, OVCAR 5 cells (cAMP)” value was 93%.
For Ac-LEGREKVRAK(Ac)I[Aib][Aib]EGQSTFS[αMeK]RAK(Ac)[PEG2′][PEG2′][PEG2′][PEG2′]K([γGlu-γGlu-γGlu-γGlu-Myristoyl])-NH2 [peptide of SEQ ID NO: 190], the “EC50 (nM), OVCAR 5 cells (cAMP)” value was 1.29 nM and the “EMax, OVCAR 5 cells (cAMP)” value was 93%.
B3 was tested, and the “EC50 (nM), OVCAR 5 cells (cAMP)” value was 0.45 nM and the “EMax, OVCAR 5 cells (cAMP)” value was 88%.
In the case of B4, the “EC50 (nM), OVCAR 5 cells (cAMP)” value is reported as 0.75 nM and the “EMax, OVCAR 5 cells (cAMP)” value is reported as 100%.
In the case of Ac-LEGREKVRAK(Ac)I[Aib][Aib]EG[Nle]STFS[αMeK]RAK(Ac)[PEG2′][PEG2′][PEG2′][PEG2′]K([γGlu-γGlu-γGlu-Palmitoyl])-NH2 [peptide of SEQ ID NO: 192], the “EC50 (nM), OVCAR 5 cells (cAMP)” value is reported as 0.62 nM and the “EMax, OVCAR 5 cells (cAMP)” value is reported as 91%.
With B5 the “EC50 (nM), OVCAR 5 cells (cAMP)” value was 0.15 nM and the “EMax, OVCAR 5 cells (cAMP)” value was 96%.
